Results from publication PMC11718236, “The Psu protein of phage satellite P4 inhibits transcription termination factor ρ by forced hyper-oligomerization” (Nature Communications, 2023).
Numbering of substitutions follows the chain as printed. Names and notes keep the numbering of the source.

Legend:
[1] = target: T1, Rho P167L;Psu (polarity suppression protein) (Escherichia coli;phage satellite P4, UniProt P0AG30;P05460 1-419;1-190, P167L|); experiment: fluorescence anisotropy; PBS; Psu up to 30 uM dimer has no effect; ADP-BeF3; 20 mM HEPES pH 7.5, 150 mM KCl, 5% glycerol, 5 mM MgCl2, 0.5 mM TCEP; SBS assays with 10 uM unlabeled dC15 and 2 mM ADP-BeF3; probe 5 uM dC15-FAM or 2 uM rU12-FAM; temperature not stated; conditions: protein: recombinant;recombinant; tags: none;none; chain copies: 6;2; label: FAM (fluorescein); single strand
[2] = target: T2, Rho (transcription termination factor ρ, wt);Psu (polarity suppression protein) (Escherichia coli;phage satellite P4, UniProt P0AG30;P05460 1-419;1-190, |); experiment: as above; conditions: protein: recombinant;recombinant; tags: none;none; chain copies: 6;2; label: FAM (fluorescein); single strand
[3] = target: transcription termination factor ρ (wild type), non-tagged, purified (E. coli, UniProt P0AG30 1-419); experiment: cell-based or functional assay
[4] = target: transcription termination factor ρ P167L variant, non-tagged, purified (E. coli, UniProt P0AG30 1-419, P167L); experiment: cell-based or functional assay
[5] = target: the molecule itself; experiment: cryo-EM structure; ρ^P167L-ATPγS-Psu complexes; 10 mM TRIS-HCl pH 8.0, 120 mM KOAc, 5 mM Mg(OAc)2, 5 µM ZnCl2; 1 mM ATPγS; single-particle analysis
[6] = target: T1, Rho P167L;Psu (polarity suppression …); experiment: fluorescence anisotropy; Psu added to pre-formed ρP167L-dC15-rU12-FAM complex; RNA not displaced; ADP-BeF3; 20 mM HEPES pH 7.5, 150 mM KCl, 5% glycerol, 5 mM MgCl2, 0.5 mM TCEP; SBS assays with 10 uM unlabeled dC15 and 2 mM ADP-BeF3; probe 5 uM dC15-FAM or 2 uM rU12-FAM; temperature not stated; conditions: protein: recombinant;recombinant; tags: none;none; chain copies: 6;2; label: FAM (fluorescein); single strand
[7] = target: T2, Rho (transcription termination factor …); experiment: fluorescence anisotropy; SBS; IC50 of Psu as inhibitor (very weak inhibition); dC15-blocked PBS; 2 mM ADP-BeF3; 20 mM HEPES pH 7.5, 150 mM KCl, 5% glycerol, 5 mM MgCl2, 0.5 mM TCEP; SBS assays with 10 uM unlabeled dC15 and 2 mM ADP-BeF3; probe 5 uM dC15-FAM or 2 uM rU12-FAM; temperature not stated; conditions: protein: recombinant;recombinant; tags: none;none; chain copies: 6;2; label: FAM (fluorescein); single strand

B1: dC15-FAM (ssDNA)
DNA: CCCCCCCCCCCCCCC
binding result [1]: binds
binding result [2]: binds

B2: phage satellite P4 polarity suppression protein Psu (wild type), purified (natural protein)
chain: MESTALQQAFDTCQNNKAAWLQRKNELAAAEQEYLRLLSGEGRNVSRLDELRNIIEVRKWQVNQAAGRYIRSHEAVQHISIRDRLNDFMQQHGTALAAALAPELMGYSELTAIARNCAIQRATDALREALLSWLAKGEKINYSAQDSDILTTIGFRPDVASVDDSREKFTPAQNMIFSRKSAQLASRQSV
notes: polarity suppression protein Psu of phage satellite P4; No tag is told for the purified protein; also called Psu^wt; wt Psu; source: E. coli BL21 RIL, purified (ammonium sulfate precipitation, heparin, MonoQ, MonoS, Superdex 75 SEC)
IC50 of Psu for inhibition of rU12-FAM binding at the SBS of ρ^wt (fluorescence anisotropy, with ADP-BeF3 and dC15) [3]: 299 µM
IC50 of inhibition of the RNA-stimulated ATPase activity of ρ^wt by Psu (TLC, 1 h, 37 °C) [3]: 0.9 µM
decrease of the ρ^wt ATPase rate at Psu dimer:ρ hexamer 10:1 and 50:1 (1.3-fold and 1.6-fold) [3]: 1.6 fold
IC50 of Psu for inhibition of rU12-FAM binding at the SBS of ρ^P167L (fluorescence anisotropy, with ADP-BeF3 and dC15) [4]: 2.8 µM
IC50 of inhibition of the RNA-stimulated ATPase activity of ρ^P167L by Psu (TLC, 1 h, 37 °C) [4]: 0.8 µM
decrease of the ρ^P167L ATPase rate at Psu dimer:ρ hexamer 10:1 and 50:1 (1.5-fold and 4-fold) [4]: 4 fold
stoichiometry N [5]: 2

B3: Psu R43A variant, purified (natural protein, phage satellite P4)
chain: B2 chain with R43A
IC50 of inhibition of the RNA-stimulated ATPase activity of ρ^P167L by Psu^R43A (TLC, 1 h, 37 °C) [4]: 12.9 µM

B4: rU12-FAM (ssRNA)
RNA: UUUUUUUUUUUU
binding result [6]: binds
IC50 [7]: 299 µM
